Source: US20240132578A1

How the values were obtained:
[1] = target: HIV-1 Env of pseudovirus MGRM-D-021 (HIV-1); experiment: cell-based or functional assay
[2] = target: HIV-1 Env of isolate MGRM-C-027 (subtype C), on pseudovirus (HIV-1); experiment: cell-based or functional assay
[3] = target: HIV-1 Env of pseudovirus isolate MGRM-Chronic-B-008 (clade B) (HIV-1); experiment: cell-based or functional assay
[4] = target: HIV-1 Env of isolate MG RM-A-008 (pseudovirus) (HIV-1); experiment: cell-based or functional assay
[5] = target: HIV-1 Env of isolate MGRM-D-003 (HIV-1); experiment: cell-based or functional assay
[6] = target: HIV-1 Env of isolate 92UG114 (HIV-1); experiment: cell-based or functional assay
[7] = target: HIV-1 Env of isolate MGRM-C-022 (subtype C), on pseudovirus (HIV-1); experiment: cell-based or functional assay
[8] = target: HIV-1 Env of isolate VLGCA1 (pseudovirus) (HIV-1); experiment: cell-based or functional assay
[9] = target: HIV-1 Env of isolate MGRM-D-004 (HIV-1); experiment: cell-based or functional assay
[10] = target: HIV-1 Env of isolate MGRM-G-006 (subtype G) (HIV-1); experiment: cell-based or functional assay
[11] = target: HIV-1 Env of isolate MGRM-G-028 (subtype G) (HIV-1); experiment: cell-based or functional assay
[12] = target: HIV-1 Env of isolate 92UG024 (pseudovirus) (HIV-1); experiment: cell-based or functional assay
[13] = target: HIV-1 Env of isolate MGRM-AG-009 (subtype AG) (HIV-1); experiment: cell-based or functional assay
[14] = target: HIV-1 Env of isolate MGRM-AE-006 (subtype AE) (HIV-1); experiment: cell-based or functional assay
[15] = target: HIV-1 Env of isolate MGRM-D-022 (pseudovirus) (HIV-1); experiment: cell-based or functional assay
[16] = target: HIV-1 Env of isolate MGRM-Chronic-B-003 (HIV-1); experiment: cell-based or functional assay
[17] = target: HIV-1 Env of isolate MGRM-AE-002 (subtype AE) (HIV-1); experiment: cell-based or functional assay
[18] = target: HIV-1 Env of pseudovirus isolate MGRM-C-012 (clade C) (HIV-1); experiment: cell-based or functional assay
[19] = target: HIV-1 Env of isolate MGRM-AG-003 (subtype AG) (HIV-1); experiment: cell-based or functional assay
[20] = target: HIV-1 Env of pseudovirus isolate MGRM-C-014 (clade C) (HIV-1); experiment: cell-based or functional assay
[21] = target: HIV-1 Env of isolate MGRM-F1-006 (HIV-1); experiment: cell-based or functional assay
[22] = target: JR-FL gp120 ΔV1/ΔV2 (HIV-1 JR-FL); experiment: ELISA, antigen-coated wells, mAb titrated; EC50 by nonlinear regression
[23] = target: HIV-1 92TH021 envelope protein (Env) on pseudovirus (HIV-1); experiment: cell-based or functional assay
[24] = target: aMLV envelope; experiment: cell-based or functional assay

Sequence of 4980_N08 (PGT-143) (antibody) (VH): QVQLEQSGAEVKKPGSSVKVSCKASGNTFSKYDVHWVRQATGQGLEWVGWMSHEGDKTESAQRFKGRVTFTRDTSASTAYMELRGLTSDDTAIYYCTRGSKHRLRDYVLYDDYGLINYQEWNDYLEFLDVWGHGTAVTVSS
Sequence of 4980_N08 (PGT-143) (antibody) (VL): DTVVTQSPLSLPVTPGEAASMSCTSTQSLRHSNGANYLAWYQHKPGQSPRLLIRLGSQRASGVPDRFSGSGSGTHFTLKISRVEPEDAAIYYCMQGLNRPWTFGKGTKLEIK
Sequence of 4993_K13 (PGT-141) (antibody) (VH): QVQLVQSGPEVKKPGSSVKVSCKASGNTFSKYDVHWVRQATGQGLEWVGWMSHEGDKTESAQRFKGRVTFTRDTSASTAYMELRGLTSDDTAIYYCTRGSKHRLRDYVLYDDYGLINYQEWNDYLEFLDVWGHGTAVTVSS
Sequence of 4993_K13 (PGT-141) (antibody) (VL): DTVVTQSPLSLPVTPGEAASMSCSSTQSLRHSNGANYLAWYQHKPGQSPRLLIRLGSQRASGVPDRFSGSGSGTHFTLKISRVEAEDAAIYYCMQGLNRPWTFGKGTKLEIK
Sequence of 5345_I01 (PGT-137) (antibody) (VH): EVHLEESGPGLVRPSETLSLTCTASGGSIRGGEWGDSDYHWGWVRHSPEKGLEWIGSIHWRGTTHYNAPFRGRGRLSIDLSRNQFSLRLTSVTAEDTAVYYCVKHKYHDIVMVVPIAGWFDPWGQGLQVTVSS
Sequence of 5345_I01 (PGT-137) (antibody) (VL): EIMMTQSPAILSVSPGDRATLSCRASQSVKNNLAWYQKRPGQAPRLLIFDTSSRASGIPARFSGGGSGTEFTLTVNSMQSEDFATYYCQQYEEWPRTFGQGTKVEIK
Sequence of 5329_C19 (PGT-136) (antibody) (VH): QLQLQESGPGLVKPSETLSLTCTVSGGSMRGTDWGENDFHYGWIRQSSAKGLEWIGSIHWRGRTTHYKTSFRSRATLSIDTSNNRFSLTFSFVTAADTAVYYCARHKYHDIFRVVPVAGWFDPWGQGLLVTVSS
Sequence of 5329_C19 (PGT-136) (antibody) (VL): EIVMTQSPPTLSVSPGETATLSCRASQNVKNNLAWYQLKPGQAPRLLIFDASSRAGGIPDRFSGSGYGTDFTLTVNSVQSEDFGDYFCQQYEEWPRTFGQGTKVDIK
Sequence of 4995_E20 (PGT-142) (antibody) (VH): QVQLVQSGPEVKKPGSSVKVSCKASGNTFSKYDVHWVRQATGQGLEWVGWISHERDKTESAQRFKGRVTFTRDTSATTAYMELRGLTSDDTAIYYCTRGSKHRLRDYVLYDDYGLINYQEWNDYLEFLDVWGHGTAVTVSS
Sequence of 4970_K22 (PGT-144) (antibody) (VH): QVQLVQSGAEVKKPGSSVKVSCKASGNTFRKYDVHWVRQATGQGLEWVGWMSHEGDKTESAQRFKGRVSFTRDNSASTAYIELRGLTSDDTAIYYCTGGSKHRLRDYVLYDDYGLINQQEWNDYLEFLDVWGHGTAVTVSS
Sequence of 4970_K22 (PGT-144) (antibody) (VL): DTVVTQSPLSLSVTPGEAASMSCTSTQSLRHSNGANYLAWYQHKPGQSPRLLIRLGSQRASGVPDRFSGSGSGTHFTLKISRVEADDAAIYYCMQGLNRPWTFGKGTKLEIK
Sequence of 4995_P16 (PGT-145) (antibody) (VH): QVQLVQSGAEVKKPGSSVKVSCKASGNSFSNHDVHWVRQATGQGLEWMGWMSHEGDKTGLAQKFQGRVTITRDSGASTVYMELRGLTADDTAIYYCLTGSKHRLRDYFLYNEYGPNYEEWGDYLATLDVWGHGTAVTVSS
Sequence of 4995_P16 (PGT-145) (antibody) (VL): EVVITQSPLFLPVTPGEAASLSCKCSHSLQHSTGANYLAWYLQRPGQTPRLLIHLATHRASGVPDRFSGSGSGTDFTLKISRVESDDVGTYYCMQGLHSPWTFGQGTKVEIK

Substance	IC50, pseudovirus neutralization [1]	IC50, single-round pseudovirus neutralization [2]	IC50, pseudovirus neutralization [3]	IC50 (µg/mL), single-round pseudovirus neutralization [4]	IC50 (µg/mL), pseudovirus neutralization [5]	IC50 (µg/mL), pseudovirus neutralization [6]	IC50, single-round pseudovirus neutralization [7]	IC50 (µg/mL), single-round pseudovirus neutralization [8]	IC50 (µg/mL), pseudovirus neutralization [9]	IC50 (µg/mL), pseudovirus neutralization [10]	IC50 (µg/mL), pseudovirus neutralization [11]	IC50 (µg/mL), pseudovirus neutralization [12]	IC50, pseudovirus neutralization [13]	IC50, pseudovirus neutralization [14]	IC50 (µg/mL), pseudovirus neutralization [15]	IC50 (µg/mL), pseudovirus neutralization [16]	IC50, pseudovirus neutralization [17]	IC50, pseudovirus neutralization [18]	IC50, pseudovirus neutralization [19]	IC50, pseudovirus neutralization [20]	further results
PGT-141 (4964_G22; 4993_K13) (antibody)	> 50 µg/mL	–	–	–	–	–	–	–	–	–	–	–	–	–	–	–	–	–	–	–	–
PGT-145 (4995_P16) (antibody)	> 50 µg/mL	–	–	–	–	–	–	–	–	–	–	–	–	–	–	–	–	–	–	–	–
VRC01 (antibody)	33.4 µg/mL	0.125 µg/mL	0.155 µg/mL	0.303 µg/mL	2.06 µg/mL	0.33 µg/mL	13 µg/mL	0.163 µg/mL	1.25 µg/mL	0.055 µg/mL	0.164 µg/mL	–	–	–	–	–	–	–	–	–	–
4995_P16 (PGT-145) (antibody)	–	0.095 µg/mL	1.9 µg/mL	> 50 µg/mL	0.006 µg/mL	20.1 µg/mL	0.492 µg/mL	8.01 µg/mL	10.9 µg/mL	0.286 µg/mL	0.046 µg/mL	–	–	–	–	–	–	–	–	–	–
PGT-144 (4970_K22) (antibody)	> 50 µg/mL	–	–	–	–	–	–	–	–	–	–	–	–	–	–	–	–	–	–	–	–
5345_I01 (PGT-137) (antibody)	–	–	–	–	–	–	–	–	–	–	–	0.106 µg/mL	> 50 µg/mL	> 50 µg/mL	> 50 µg/mL	> 50 µg/mL	> 50 µg/mL	0.102 µg/mL	> 50 µg/mL	> 50 µg/mL	IC50 (µg/mL), pseudovirus neutralization [21]: > 50 µg/mL; EC50 [22]: 0.2 µg/mL
4995_E20 (PGT-142) (antibody)	–	0.792 µg/mL	> 50 µg/mL	> 50 µg/mL	> 50 µg/mL	> 50 µg/mL	0.086 µg/mL	2.75 µg/mL	> 50 µg/mL	0.019 µg/mL	30.3 µg/mL	–	–	–	–	–	–	–	–	–	–
5114_A19 (PGT-128) (antibody)	–	–	–	–	–	–	–	–	–	–	–	> 50 µg/mL	0.021 µg/mL	0.044 µg/mL	> 50 µg/mL	0.007 µg/mL	0.522 µg/mL	0.058 µg/mL	34.8 µg/mL	> 50 µg/mL	IC50 (µg/mL), pseudovirus neutralization [21]: 0.763 µg/mL; EC50 [22]: 0.3 µg/mL
4970_K22 (PGT-144) (antibody)	–	> 50 µg/mL	> 50 µg/mL	> 50 µg/mL	> 50 µg/mL	> 50 µg/mL	2.58 µg/mL	> 50 µg/mL	> 50 µg/mL	3.84 µg/mL	> 50 µg/mL	–	–	–	–	–	–	–	–	–	–
5329_C19 (PGT-136) (antibody)	–	–	–	–	–	–	–	–	–	–	–	0.052 µg/mL	> 50 µg/mL	> 50 µg/mL	> 50 µg/mL	> 50 µg/mL	> 50 µg/mL	> 50 µg/mL	> 50 µg/mL	> 50 µg/mL	IC50 (ug/mL), pseudovirus neutralization [23]: > 10 µg/mL; IC50 (µg/mL), pseudovirus neutralization [21]: > 50 µg/mL; EC50 [22]: 0.3 µg/mL
5343_B08 (PGT-135) (antibody)	–	–	–	–	–	–	–	–	–	–	–	0.01 µg/mL	> 50 µg/mL	> 50 µg/mL	> 50 µg/mL	> 50 µg/mL	> 50 µg/mL	0.017 µg/mL	> 50 µg/mL	> 50 µg/mL	IC50 (ug/mL), pseudovirus neutralization [23]: > 10 µg/mL; IC50 (µg/mL), pseudovirus neutralization [21]: > 50 µg/mL; EC50 [22]: 0.1 µg/mL
PGT-143 (4980_N08) (antibody)	> 50 µg/mL	–	–	–	–	–	–	–	–	–	–	–	–	–	–	–	–	–	–	–	–
4980_N08 (PGT-143) (antibody)	–	0.598 µg/mL	> 50 µg/mL	> 50 µg/mL	> 50 µg/mL	> 50 µg/mL	0.103 µg/mL	17.4 µg/mL	> 50 µg/mL	0.031 µg/mL	43 µg/mL	–	–	–	–	–	–	–	–	–	–
PGT-142 (4995_E20) (antibody)	> 50 µg/mL	–	–	–	–	–	–	–	–	–	–	–	–	–	–	–	–	–	–	–	–
5147_N06 (PGT-130) (antibody)	–	–	–	–	–	–	–	–	–	–	–	> 50 µg/mL	9.46 µg/mL	0.009 µg/mL	> 50 µg/mL	> 50 µg/mL	1.53 µg/mL	> 50 µg/mL	0.041 µg/mL	> 50 µg/mL	IC50, pseudovirus neutralization [24]: > 10 µg/mL; IC50 (ug/mL), pseudovirus neutralization [23]: 0.0082 µg/mL; IC50 (µg/mL), pseudovirus neutralization [21]: > 50 µg/mL
4993_K13 (PGT-141) (antibody)	–	3.27 µg/mL	> 50 µg/mL	> 50 µg/mL	> 50 µg/mL	> 50 µg/mL	0.381 µg/mL	2.07 µg/mL	> 50 µg/mL	0.043 µg/mL	24.9 µg/mL	–	–	–	–	–	–	–	–	–	–
